Columns and labels:
[1] = molecular target: His-KLP64DS (6xHis-tagged KLP64D stalk) (Drosophila) (UniProt Q9VRK9); assay: SEC; affinity purified heterodimer on HiLoad 16/60 Superdex 75 pg in 20 mM Tris-Cl pH 7.5, 5 mM MgCl2, 500 mM NaCl, 2.5 mM DTT, 1 ml/min; fractions on SDS-PAGE, band intensities compared
[2] = molecular target: His-KLP68DS (6xHis-tagged KLP68D stalk) (Drosophila); assay: as above

stoichiometry N [1]	stoichiometry N [2]	Molecule
1	–	KLP68DS (KLP68D stalk, untagged) (domain or fragment)
–	1	KLP64DS (KLP64D stalk, untagged) (domain or fragment) PKKKREKTDAEKEELAKRKNEHQKEIEHAKTEQETLRNKLVSLEGKILVGGENLLEKAQTQELLLEQSIAELEQHEKSEEALKQTLQQKATERIDIEERYSTLQDASTGITKKIHRVMQMLMGVKSELADQQQEHQREKEGIYENIRSLSRELALCELVLNSYVP

Reference: article PMC3461054
